# B1: A190S (protein)
# chain: MQLRNPELHLGCALALRFLALVSWDIPGARALDNGLARTPTMGWLHWERFMCNLDCQEEPDSCISEKLFMEMAELMVSEGWKDAGYEYLCIDDCWMAPQRDSEGRLQADPQRFPHGIRQLANYVHSKGLKLGIYADVGNKTCAGFPGSFGYYDIDAQTFADWGVDLLKFDGCYCDSLENLADGYKHMSLSLNRTGRSIVYSCEWPLYMWPFQKPNYTEIRQYCNHWRNFADIDDSWKSIKSILDWTSFNQERIVDVAGPGGWNDPDMLVIGNFGLSWNQQVTQMALWAIMAAPLFMSNDLRHISPQAKALLQDKDVIAINQDPLGKQGYQLRQGDNFEVWERPLSGLAWAVAMINRQEIGGPRSYTIAVASLGKGVACNPACFITQLLPVKRKLGFYEWTSRLRSHINPTGTVLLQLENTMQMSLKDLL
# B2: L191M (protein)
# chain: MQLRNPELHLGCALALRFLALVSWDIPGARALDNGLARTPTMGWLHWERFMCNLDCQEEPDSCISEKLFMEMAELMVSEGWKDAGYEYLCIDDCWMAPQRDSEGRLQADPQRFPHGIRQLANYVHSKGLKLGIYADVGNKTCAGFPGSFGYYDIDAQTFADWGVDLLKFDGCYCDSLENLADGYKHMSLAMNRTGRSIVYSCEWPLYMWPFQKPNYTEIRQYCNHWRNFADIDDSWKSIKSILDWTSFNQERIVDVAGPGGWNDPDMLVIGNFGLSWNQQVTQMALWAIMAAPLFMSNDLRHISPQAKALLQDKDVIAINQDPLGKQGYQLRQGDNFEVWERPLSGLAWAVAMINRQEIGGPRSYTIAVASLGKGVACNPACFITQLLPVKRKLGFYEWTSRLRSHINPTGTVLLQLENTMQMSLKDLL
# B3: A190V (protein)
# chain: MQLRNPELHLGCALALRFLALVSWDIPGARALDNGLARTPTMGWLHWERFMCNLDCQEEPDSCISEKLFMEMAELMVSEGWKDAGYEYLCIDDCWMAPQRDSEGRLQADPQRFPHGIRQLANYVHSKGLKLGIYADVGNKTCAGFPGSFGYYDIDAQTFADWGVDLLKFDGCYCDSLENLADGYKHMSLVLNRTGRSIVYSCEWPLYMWPFQKPNYTEIRQYCNHWRNFADIDDSWKSIKSILDWTSFNQERIVDVAGPGGWNDPDMLVIGNFGLSWNQQVTQMALWAIMAAPLFMSNDLRHISPQAKALLQDKDVIAINQDPLGKQGYQLRQGDNFEVWERPLSGLAWAVAMINRQEIGGPRSYTIAVASLGKGVACNPACFITQLLPVKRKLGFYEWTSRLRSHINPTGTVLLQLENTMQMSLKDLL
# B4: N192H (protein)
# chain: MQLRNPELHLGCALALRFLALVSWDIPGARALDNGLARTPTMGWLHWERFMCNLDCQEEPDSCISEKLFMEMAELMVSEGWKDAGYEYLCIDDCWMAPQRDSEGRLQADPQRFPHGIRQLANYVHSKGLKLGIYADVGNKTCAGFPGSFGYYDIDAQTFADWGVDLLKFDGCYCDSLENLADGYKHMSLALHRTGRSIVYSCEWPLYMWPFQKPNYTEIRQYCNHWRNFADIDDSWKSIKSILDWTSFNQERIVDVAGPGGWNDPDMLVIGNFGLSWNQQVTQMALWAIMAAPLFMSNDLRHISPQAKALLQDKDVIAINQDPLGKQGYQLRQGDNFEVWERPLSGLAWAVAMINRQEIGGPRSYTIAVASLGKGVACNPACFITQLLPVKRKLGFYEWTSRLRSHINPTGTVLLQLENTMQMSLKDLL
# B5: L191V (protein)
# chain: MQLRNPELHLGCALALRFLALVSWDIPGARALDNGLARTPTMGWLHWERFMCNLDCQEEPDSCISEKLFMEMAELMVSEGWKDAGYEYLCIDDCWMAPQRDSEGRLQADPQRFPHGIRQLANYVHSKGLKLGIYADVGNKTCAGFPGSFGYYDIDAQTFADWGVDLLKFDGCYCDSLENLADGYKHMSLAVNRTGRSIVYSCEWPLYMWPFQKPNYTEIRQYCNHWRNFADIDDSWKSIKSILDWTSFNQERIVDVAGPGGWNDPDMLVIGNFGLSWNQQVTQMALWAIMAAPLFMSNDLRHISPQAKALLQDKDVIAINQDPLGKQGYQLRQGDNFEVWERPLSGLAWAVAMINRQEIGGPRSYTIAVASLGKGVACNPACFITQLLPVKRKLGFYEWTSRLRSHINPTGTVLLQLENTMQMSLKDLL
# B6: A190T (protein)
# chain: MQLRNPELHLGCALALRFLALVSWDIPGARALDNGLARTPTMGWLHWERFMCNLDCQEEPDSCISEKLFMEMAELMVSEGWKDAGYEYLCIDDCWMAPQRDSEGRLQADPQRFPHGIRQLANYVHSKGLKLGIYADVGNKTCAGFPGSFGYYDIDAQTFADWGVDLLKFDGCYCDSLENLADGYKHMSLTLNRTGRSIVYSCEWPLYMWPFQKPNYTEIRQYCNHWRNFADIDDSWKSIKSILDWTSFNQERIVDVAGPGGWNDPDMLVIGNFGLSWNQQVTQMALWAIMAAPLFMSNDLRHISPQAKALLQDKDVIAINQDPLGKQGYQLRQGDNFEVWERPLSGLAWAVAMINRQEIGGPRSYTIAVASLGKGVACNPACFITQLLPVKRKLGFYEWTSRLRSHINPTGTVLLQLENTMQMSLKDLL
# B7: N192D (protein)
# chain: MQLRNPELHLGCALALRFLALVSWDIPGARALDNGLARTPTMGWLHWERFMCNLDCQEEPDSCISEKLFMEMAELMVSEGWKDAGYEYLCIDDCWMAPQRDSEGRLQADPQRFPHGIRQLANYVHSKGLKLGIYADVGNKTCAGFPGSFGYYDIDAQTFADWGVDLLKFDGCYCDSLENLADGYKHMSLALDRTGRSIVYSCEWPLYMWPFQKPNYTEIRQYCNHWRNFADIDDSWKSIKSILDWTSFNQERIVDVAGPGGWNDPDMLVIGNFGLSWNQQVTQMALWAIMAAPLFMSNDLRHISPQAKALLQDKDVIAINQDPLGKQGYQLRQGDNFEVWERPLSGLAWAVAMINRQEIGGPRSYTIAVASLGKGVACNPACFITQLLPVKRKLGFYEWTSRLRSHINPTGTVLLQLENTMQMSLKDLL
# Test system: mutant form of α-Gal A expressed in HEK-293 cells
# Assay: HEK assay (GLP HEK / Migalastat Amenability Assay): α-Gal A activity in lysates of transiently transfected HEK-293 cells incubated with or without 10 μM migalastat
# Format: cell-based, human
# Settings: for Absolute increase (% WT): 10 μM migalastat versus baseline; for Relative increase: 10 μM migalastat α-Gal A activity relative to baseline; for 10 μM migalastat α-Gal A activity (% WT): 5 days; for 10 μM migalastat α-Gal A activity (% WT) / Baseline α-Gal A activity (% WT): percentage of baseline wild-type α-Gal A activity; for 10 μM migalastat α-Gal A activity (% WT) / Baseline α-Gal A activity (% WT) / Baseline α-Gal A activity / 10 μM migalastat α-Gal A activity: mean ± SEM; for Baseline α-Gal A activity (% WT): absence of migalastat; for Baseline α-Gal A activity / 10 μM migalastat α-Gal A activity: lysates of HEK-293 cells transfected with the mutant form; for Baseline α-Gal A activity: incubated 5 days in the absence of migalastat; for 10 μM migalastat α-Gal A activity: incubated 5 days with 10 μM migalastat
# Procedure, shortened: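 Activity reported as 4-MU released (nmol/mg/hr), mean±SEM, from lysates of transiently transfected HEK-293 cells expressing mutant α-Gal A, cultured with or without 10 μM migalastat.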
molecule,measurement,value
B1,Absolute increase (% WT),26.1 % WT
same,Relative increase,1.3
same,10 μM migalastat α-Gal A activity (% WT),110.6 ± 5.5 % WT
same,Baseline α-Gal A activity (% WT),84.5 ± 3.2 % WT
same,Baseline α-Gal A activity,27316 ± 1369 nmol/mg/h
same,10 μM migalastat α-Gal A activity,35787 ± 2235 nmol/mg/h
B2,Absolute increase (% WT),41.7 % WT
same,Relative increase,1.8
same,10 μM migalastat α-Gal A activity (% WT),100.2 ± 9.8 % WT
same,Baseline α-Gal A activity (% WT),58.4 ± 6.6 % WT
same,Baseline α-Gal A activity,19968 ± 2010 nmol/mg/h
same,10 μM migalastat α-Gal A activity,34977 ± 3072 nmol/mg/h
B3,Absolute increase (% WT),41.2 % WT
same,Relative increase,2.2
same,10 μM migalastat α-Gal A activity (% WT),77.9 ± 9.5 % WT
same,Baseline α-Gal A activity (% WT),36.8 ± 5.1 % WT
same,Baseline α-Gal A activity,12542 ± 1642 nmol/mg/h
same,10 μM migalastat α-Gal A activity,27078 ± 2910 nmol/mg/h
B4,Absolute increase (% WT),16.4 % WT
same,Relative increase,2.8
same,10 μM migalastat α-Gal A activity (% WT),24.9 ± 3 % WT
same,Baseline α-Gal A activity (% WT),8.6 ± 1.1 % WT
same,Baseline α-Gal A activity,3103 ± 402 nmol/mg/h
same,10 μM migalastat α-Gal A activity,8765 ± 935 nmol/mg/h
B5,Absolute increase (% WT),39.1 % WT
same,Relative increase,1.6
same,10 μM migalastat α-Gal A activity (% WT),110.2 ± 7.9 % WT
same,Baseline α-Gal A activity (% WT),71.1 ± 4.7 % WT
same,Baseline α-Gal A activity,24068 ± 1533 nmol/mg/h
same,10 μM migalastat α-Gal A activity,37342 ± 2569 nmol/mg/h
B6,Absolute increase (% WT),30.7 % WT
same,Relative increase,2.1
same,10 μM migalastat α-Gal A activity (% WT),57 ± 1.9 % WT
same,Baseline α-Gal A activity (% WT),26.3 ± 2 % WT
same,Baseline α-Gal A activity,8600 ± 733 nmol/mg/h
same,10 μM migalastat α-Gal A activity,18373 ± 795 nmol/mg/h
B7,Absolute increase (% WT),55.6 % WT
same,Relative increase,3.2
same,10 μM migalastat α-Gal A activity (% WT),81.5 ± 6.7 % WT
same,Baseline α-Gal A activity (% WT),25.9 ± 3 % WT
same,Baseline α-Gal A activity,9035 ± 886 nmol/mg/h
same,10 μM migalastat α-Gal A activity,28923 ± 1892 nmol/mg/h

# From patent US11833164B2, “Methods of treating Fabry disease in patients having a mutation in the GLA gene” (Amicus Therapeutics, Inc., priority 2019, dated 2023)
